# Laboratory results from US20130005646A1 (Novo Nordisk, published 2013).
# Starred links: 1 amine or outer side, 2 acyl side, 3 side chain; linkers in the order of their positions; H or OH if unused. Positions of bridges follow the written chain, without caps; N, C: chain ends. Groups on a side chain read outwards from the residue. No end group written: not given here. *: point of attachment. X1 = (S)‑4‑Carboxy‑4‑(19-carboxynonadecanoylamino)butyryl, O=C(O)CCCCCCCCCCCCCCCCCCC(=O)N[C@@H](CCC(=O)*)C(=O)O; C20 diacid = O=C(O)CCCCCCCCCCCCCCCCCCC(=O)*; 19‑carboxyheptadecanoyl = not defined here; γGlu = O=C(O)[C@H](CCC(=O)[*:2])N[*:1]; AEEA = NCCOCCOCC(=O)O
# T1: human amylin 3(a) receptor (human calcitonin receptor + RAMP-3) (human, UniProt P30988 25-474; O60896 24-148)
# T1 sequence (looked up) 1: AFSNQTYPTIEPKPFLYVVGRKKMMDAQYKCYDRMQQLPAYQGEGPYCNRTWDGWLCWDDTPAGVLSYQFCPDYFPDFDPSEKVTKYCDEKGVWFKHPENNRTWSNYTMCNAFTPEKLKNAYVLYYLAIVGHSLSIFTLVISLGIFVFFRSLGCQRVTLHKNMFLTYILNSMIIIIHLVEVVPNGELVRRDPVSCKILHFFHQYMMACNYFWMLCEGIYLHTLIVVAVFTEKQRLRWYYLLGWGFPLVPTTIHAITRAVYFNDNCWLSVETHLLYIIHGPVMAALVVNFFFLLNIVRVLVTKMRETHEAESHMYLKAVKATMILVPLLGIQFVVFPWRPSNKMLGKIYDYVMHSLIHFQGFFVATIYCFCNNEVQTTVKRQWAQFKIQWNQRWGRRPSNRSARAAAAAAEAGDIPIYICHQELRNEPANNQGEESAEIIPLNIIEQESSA
# T1 sequence (looked up) 2: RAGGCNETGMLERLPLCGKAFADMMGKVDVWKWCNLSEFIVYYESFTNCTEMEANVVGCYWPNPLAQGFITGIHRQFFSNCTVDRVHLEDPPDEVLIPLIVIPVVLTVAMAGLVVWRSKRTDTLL
# T2: human calcitonin (a) receptor (human, UniProt P30988 25-474)
# T2 sequence (looked up): T1 sequence (looked up) 1
# B1: N-alpha-[2-(2-{2-[2-(2-{2-[(S)-4-Carboxy-4-(19-carboxyheptadecanoylamino)butyrylamino]ethoxy}ethoxy)acetylamino]ethoxy}ethoxy)acetyl]-[His1,Glu14,His17,Arg18,Al … (peptide)
# peptide: {19‑carboxyheptadecanoyl-γGlu-AEEA-AEEA}-HCNTATCATQRLAEFLHRATQELGPILPPTNVGSNTY-NH2
# modifications: disulfide 2-7; reading uncertain; also: printed as N-alpha-[2-(2-{2-[2-(2-{2-[(S)-4-Carboxy-4-(19-carboxyheptadecanoylamino)butyrylamino]ethoxy}ethoxy)acetylamino]ethoxy}ethoxy)acetyl]-[His1,Glu14,His17,Arg18,Ala19,Thr20,Gln21,Glu22,Leu23]-pramlintide
# B2: N-alpha-[(S)-4-Carboxy-4-(19-carboxynonadecanoylamino)butyryl]-His-His-[His1,Glu14]-pramlintide (peptide)
# peptide: {C20 diacid-γGlu}-HHHCNTATCATQRLAEFLVHSSNNFGPILPPTNVGSNTY-NH2
# modifications: disulfide 4-9
# SMILES: CC[C@H](C)[C@H](NC(=O)[C@@H]1CCCN1C(=O)CNC(=O)[C@H](Cc1ccccc1)NC(=O)[C@H](CC(N)=O)NC(=O)[C@H](CC(N)=O)NC(=O)[C@H](CO)NC(=O)[C@H](CO)NC(=O)[C@H](Cc1c[nH]cn1)NC(=O)[C@@H](NC(=O)[C@H](CC(C)C)NC(=O)[C@H](Cc1ccccc1)NC(=O)[C@H](CCC(=O)O)NC(=O)[C@H](C)NC(=O)[C@H](CC(C)C)NC(=O)[C@H](CCCNC(=N)N)NC(=O)[C@H](CCC(N)=O)NC(=O)[C@@H](NC(=O)[C@H](C)NC(=O)[C@@H]1CSSC[C@H](NC(=O)[C@H](Cc2c[nH]cn2)NC(=O)[C@H](Cc2c[nH]cn2)NC(=O)[C@H](Cc2c[nH]cn2)NC(=O)CC[C@H](NC(=O)CCCCCCCCCCCCCCCCCCC(=O)O)C(=O)O)C(=O)N[C@@H](CC(N)=O)C(=O)N[C@@H]([C@@H](C)O)C(=O)N[C@@H](C)C(=O)N[C@@H]([C@@H](C)O)C(=O)N1)[C@@H](C)O)C(C)C)C(=O)N[C@@H](CC(C)C)C(=O)N1CCC[C@H]1C(=O)N1CCC[C@H]1C(=O)N[C@H](C(=O)N[C@@H](CC(N)=O)C(=O)N[C@H](C(=O)NCC(=O)N[C@@H](CO)C(=O)N[C@@H](CC(N)=O)C(=O)N[C@H](C(=O)N[C@@H](Cc1ccc(O)cc1)C(N)=O)[C@@H](C)O)C(C)C)[C@@H](C)O
# B3: N-alpha-[(S)-4-Carboxy-4-(19-carboxynonadecanoylamino)butyryl]-[His1,Glu14,His17,Arg18,Glu22,Ala25,Arg26,Ser28,Ser29]-pramlintide (peptide)
# peptide: X1-HCNTATCATQRLAEFLHRSSNEFGARLSSTNVGSNTY-NH2
# modifications: disulfide 2-7
# SMILES: CC(C)C[C@H](NC(=O)[C@H](CCCNC(=N)N)NC(=O)[C@H](CCC(N)=O)NC(=O)[C@@H](NC(=O)[C@H](C)NC(=O)[C@@H]1CSSC[C@H](NC(=O)[C@H](Cc2c[nH]cn2)NC(=O)CC[C@H](NC(=O)CCCCCCCCCCCCCCCCCCC(=O)O)C(=O)O)C(=O)N[C@@H](CC(N)=O)C(=O)N[C@@H]([C@@H](C)O)C(=O)N[C@@H](C)C(=O)N[C@@H]([C@@H](C)O)C(=O)N1)[C@@H](C)O)C(=O)N[C@@H](C)C(=O)N[C@@H](CCC(=O)O)C(=O)N[C@@H](Cc1ccccc1)C(=O)N[C@@H](CC(C)C)C(=O)N[C@@H](Cc1c[nH]cn1)C(=O)N[C@@H](CCCNC(=N)N)C(=O)N[C@@H](CO)C(=O)N[C@@H](CO)C(=O)N[C@@H](CC(N)=O)C(=O)N[C@@H](CCC(=O)O)C(=O)N[C@@H](Cc1ccccc1)C(=O)NCC(=O)N[C@@H](C)C(=O)N[C@@H](CCCNC(=N)N)C(=O)N[C@@H](CC(C)C)C(=O)N[C@@H](CO)C(=O)N[C@@H](CO)C(=O)N[C@H](C(=O)N[C@@H](CC(N)=O)C(=O)N[C@H](C(=O)NCC(=O)N[C@@H](CO)C(=O)N[C@@H](CC(N)=O)C(=O)N[C@H](C(=O)N[C@@H](Cc1ccc(O)cc1)C(N)=O)[C@@H](C)O)C(C)C)[C@@H](C)O
# B4: N-alpha-[(S)-4-Carboxy-4-(19-carboxynonadecanoylamino)butyryl]-[His1,Glu14,His17,Arg18,Glu25,Ser28,Arg29]-pramlintide (peptide)
# peptide: {C20 diacid-γGlu}-HCNTATCATQRLAEFLHRSSNNFGEILSRTNVGSNTY-NH2
# modifications: disulfide 2-7
# SMILES: CC[C@H](C)[C@H](NC(=O)[C@H](CCC(=O)O)NC(=O)CNC(=O)[C@H](Cc1ccccc1)NC(=O)[C@H](CC(N)=O)NC(=O)[C@H](CC(N)=O)NC(=O)[C@H](CO)NC(=O)[C@H](CO)NC(=O)[C@H](CCCNC(=N)N)NC(=O)[C@H](Cc1c[nH]cn1)NC(=O)[C@H](CC(C)C)NC(=O)[C@H](Cc1ccccc1)NC(=O)[C@H](CCC(=O)O)NC(=O)[C@H](C)NC(=O)[C@H](CC(C)C)NC(=O)[C@H](CCCNC(=N)N)NC(=O)[C@H](CCC(N)=O)NC(=O)[C@@H](NC(=O)[C@H](C)NC(=O)[C@@H]1CSSC[C@H](NC(=O)[C@H](Cc2c[nH]cn2)NC(=O)CC[C@H](NC(=O)CCCCCCCCCCCCCCCCCCC(=O)O)C(=O)O)C(=O)N[C@@H](CC(N)=O)C(=O)N[C@@H]([C@@H](C)O)C(=O)N[C@@H](C)C(=O)N[C@@H]([C@@H](C)O)C(=O)N1)[C@@H](C)O)C(=O)N[C@@H](CC(C)C)C(=O)N[C@@H](CO)C(=O)N[C@@H](CCCNC(=N)N)C(=O)N[C@H](C(=O)N[C@@H](CC(N)=O)C(=O)N[C@H](C(=O)NCC(=O)N[C@@H](CO)C(=O)N[C@@H](CC(N)=O)C(=O)N[C@H](C(=O)N[C@@H](Cc1ccc(O)cc1)C(N)=O)[C@@H](C)O)C(C)C)[C@@H](C)O
# B5: N-alpha-[(S)-4-Carboxy-4-(19-carboxynonadecanoylamino)butyryl]-[His1,Glu14,Arg18]-pramlintide (peptide)
# peptide: X1-HCNTATCATQRLAEFLVRSSNNFGPILPPTNVGSNTY-NH2
# modifications: disulfide 2-7
# SMILES: CC[C@H](C)[C@H](NC(=O)[C@@H]1CCCN1C(=O)CNC(=O)[C@H](Cc1ccccc1)NC(=O)[C@H](CC(N)=O)NC(=O)[C@H](CC(N)=O)NC(=O)[C@H](CO)NC(=O)[C@H](CO)NC(=O)[C@H](CCCNC(=N)N)NC(=O)[C@@H](NC(=O)[C@H](CC(C)C)NC(=O)[C@H](Cc1ccccc1)NC(=O)[C@H](CCC(=O)O)NC(=O)[C@H](C)NC(=O)[C@H](CC(C)C)NC(=O)[C@H](CCCNC(=N)N)NC(=O)[C@H](CCC(N)=O)NC(=O)[C@@H](NC(=O)[C@H](C)NC(=O)[C@@H]1CSSC[C@H](NC(=O)[C@H](Cc2c[nH]cn2)NC(=O)CC[C@H](NC(=O)CCCCCCCCCCCCCCCCCCC(=O)O)C(=O)O)C(=O)N[C@@H](CC(N)=O)C(=O)N[C@@H]([C@@H](C)O)C(=O)N[C@@H](C)C(=O)N[C@@H]([C@@H](C)O)C(=O)N1)[C@@H](C)O)C(C)C)C(=O)N[C@@H](CC(C)C)C(=O)N1CCC[C@H]1C(=O)N1CCC[C@H]1C(=O)N[C@H](C(=O)N[C@@H](CC(N)=O)C(=O)N[C@H](C(=O)NCC(=O)N[C@@H](CO)C(=O)N[C@@H](CC(N)=O)C(=O)N[C@H](C(=O)N[C@@H](Cc1ccc(O)cc1)C(N)=O)[C@@H](C)O)C(C)C)[C@@H](C)O
# B6: N-alpha-[(S)-4-Carboxy-4-(19-carboxynonadecanoylamino)butyryl]-[His1,Gly3,Glu14,His17,Arg18,Ser21,Ser22,Glu31,Glu35]-pramlintide (peptide)
# peptide: {C20 diacid-γGlu}-HCGTATCATQRLAEFLHRSSSSFGPILPPTEVGSETY-NH2
# modifications: disulfide 2-7
# SMILES: CC[C@H](C)[C@H](NC(=O)[C@@H]1CCCN1C(=O)CNC(=O)[C@H](Cc1ccccc1)NC(=O)[C@H](CO)NC(=O)[C@H](CO)NC(=O)[C@H](CO)NC(=O)[C@H](CO)NC(=O)[C@H](CCCNC(=N)N)NC(=O)[C@H](Cc1c[nH]cn1)NC(=O)[C@H](CC(C)C)NC(=O)[C@H](Cc1ccccc1)NC(=O)[C@H](CCC(=O)O)NC(=O)[C@H](C)NC(=O)[C@H](CC(C)C)NC(=O)[C@H](CCCNC(=N)N)NC(=O)[C@H](CCC(N)=O)NC(=O)[C@@H](NC(=O)[C@H](C)NC(=O)[C@@H]1CSSC[C@H](NC(=O)[C@H](Cc2c[nH]cn2)NC(=O)CC[C@H](NC(=O)CCCCCCCCCCCCCCCCCCC(=O)O)C(=O)O)C(=O)NCC(=O)N[C@@H]([C@@H](C)O)C(=O)N[C@@H](C)C(=O)N[C@@H]([C@@H](C)O)C(=O)N1)[C@@H](C)O)C(=O)N[C@@H](CC(C)C)C(=O)N1CCC[C@H]1C(=O)N1CCC[C@H]1C(=O)N[C@H](C(=O)N[C@@H](CCC(=O)O)C(=O)N[C@H](C(=O)NCC(=O)N[C@@H](CO)C(=O)N[C@@H](CCC(=O)O)C(=O)N[C@H](C(=O)N[C@@H](Cc1ccc(O)cc1)C(N)=O)[C@@H](C)O)C(C)C)[C@@H](C)O
# Target: T1, human amylin 3(a) receptor (human …)
# Test: cell-based or functional assay
row,Amylin receptor human EC50,Binder
1,0.385 nM,B1
2,0.151 nM,B2
3,0.0994 nM,RCNTATCATQRLAEFLHRSSK([AEEA-AEEA-γGlu-19‑carboxyheptadecanoyl])NFGPILPPTNVGSNTY-NH2 (disulfide 2-7)
4,0.127 nM,B3
5,0.0779 nM,B4
6,0.083 nM,B5
7,0.313 nM,B6

# Target: T2, human calcitonin (a) receptor
# Test: cell-based or functional assay
row,CTa receptor human EC50,Binder
1,0.492 nM,B1
2,0.74 nM,B2
3,0.469 nM,RCNTATCATQRLAEFLHRSSK([AEEA-AEEA-γGlu-19‑carboxyheptadecanoyl])NFGPILPPTNVGSNTY-NH2 (disulfide 2-7)
4,0.279 nM,B3
5,0.131 nM,B4
6,0.125 nM,B5
7,0.198 nM,B6
